Experimental data published in the supplement of paper PMC10567573.

B1: ZNF449 (parent)
chain: FQEYDTDCEVFRQRFRQFQYREAA

Variants of: B1
Experiment: protein stability index of a GFP-peptide fusion (GPS, HEK-293T) (PSI 1-6); higher = more stable
Details: c terminus: a fixed tail appended
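Note: lentivirally expressed fusions sorted by FACS into six bins by GFP to DsRed ratio, PSI derived from sequencing read proportions per bin multiplied by bin number.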

Going from FQEYDTDCEVFRSRFRQFQYREAA [Q13S] to FQEYDTDCEVFRTRFRQFQYREAA [Q13T], the protein stability index rises from 2.4 to 2.41.

Compared with FQEYDTDCEVFRYRFRQFQYREAA [Q13Y], FQEYDTDCEVFRPRFRQFQYREAA [Q13P] is lower in protein stability index: 1.75 for the first, 1.03 for the second.

Compared with FQEYDTDCEVFRWRFRQFQYREAA [Q13W], FQEYDTDCEVFRVRFRQFQYREAA [Q13V] is higher in protein stability index: 2.42 for the first, 2.53 for the second.

Compared with FQEYDTDCEVFRRRFRQFQYREAA [Q13R], FQEYDTDCEVFRQRFRPFQYREAA [Q17P] is lower in protein stability index: 2.04 for the first, 1.97 for the second.

First: FQEYDTDCEVFRQRFRIFQYREAA [Q17I]
Second: FQEYDTDCEVFRQRFRVFQYREAA [Q17V]
The protein stability index of the first is higher: 2.6 for the first, 2.3 for the second.

Going from FQEYDTDCEVFRQRFRGFQYREAA [Q17G] to FQEYDTDCEVFRQRFRDFQYREAA [Q17D], the protein stability index rises from 2.22 to 3.13.

Going from FQEYDTDCEVFRQRFRHFQYREAA [Q17H] to FQEYDTDCEVFRQRFRAFQYREAA [Q17A], the protein stability index rises from 2.44 to 2.67.

Compared with FQEYDTDCEVFRQRFRRFQYREAA [Q17R], FQEYDTDCEVFRQRFRFFQYREAA [Q17F] is lower in protein stability index: 2.31 for the first, 1.71 for the second.

Going from FQEYDTDCEVFRQRFRCFQYREAA [Q17C] to FQEYDTDCEVFRQRFREFQYREAA [Q17E], the protein stability index rises from 2 to 2.85.

First: FQEYDTDCEVFRQRFRWFQYREAA [Q17W]
Second: FQEYDTDCEVFRQRFRSFQYREAA [Q17S]
The protein stability index of the first is lower: 2.17 for the first, 2.39 for the second.

First: FQEYDTDCEVFRQRFRMFQYREAA [Q17M]
Second: FQEYDTDCEVFRQRFRTFQYREAA [Q17T]
The protein stability index of the first is higher: 2.7 for the first, 2.51 for the second.

First: FQEYDTDCEVFRQRFRLFQYREAA [Q17L]
Second: FQEYDTDCEVFRQRFRKFQYREAA [Q17K]
The protein stability index of the first is higher: 2.75 for the first, 2.42 for the second.

First: FQEYDTDCEVFRQRFRYFQYREAA [Q17Y]
Second: FQEYDTDCEVFRQRFRNFQYREAA [Q17N]
The protein stability index of the first is higher: 2.86 for the first, 2.44 for the second.

Going from FQEYDTDCEVFRQRFRQNQYREAA [F18N] to FQEYDTDCEVFRQRFRQGQYREAA [F18G], the protein stability index rises from 2.38 to 2.4.

First: FQEYDTDCEVFRQRFRQHQYREAA [F18H]
Second: FQEYDTDCEVFRQRFRQMQYREAA [F18M]
The protein stability index of the first is lower: 2.4 for the first, 3.07 for the second.

Compared with FQEYDTDCEVFRQRFRQAQYREAA [F18A], FQEYDTDCEVFRQRFRQDQYREAA [F18D] is lower in protein stability index: 3.02 for the first, 1.79 for the second.

Compared with FQEYDTDCEVFRQRFRQIQYREAA [F18I], FQEYDTDCEVFRQRFRQEQYREAA [F18E] is higher in protein stability index: 2.86 for the first, 2.95 for the second.

Compared with FQEYDTDCEVFRQRFRQLQYREAA [F18L], FQEYDTDCEVFRQRFRQKQYREAA [F18K] is lower in protein stability index: 4.05 for the first, 1.76 for the second.

Compared with FQEYDTDCEVFRQRFRQCQYREAA [F18C], FQEYDTDCEVFRQEFRQFQYREAA [R14E] is higher in protein stability index: 1.96 for the first, 2.69 for the second.

First: FQEYDTDCEVFRQDFRQFQYREAA [R14D]
Second: FQEYDTDCEVFRQTFRQFQYREAA [R14T]
The protein stability index of the first is lower: 2.17 for the first, 2.75 for the second.

First: FQEYDTDCEVFRQHFRQFQYREAA [R14H]
Second: FQEYDTDCEVFRQPFRQFQYREAA [R14P]
The protein stability index of the first is higher: 2.76 for the first, 1.8 for the second.

Going from FQEYDTDCEVFRQGFRQFQYREAA [R14G] to FQEYDTDCEVFRQQFRQFQYREAA [R14Q], the protein stability index falls from 2.67 to 2.32.

Going from FQEYDTDCEVFRQSFRQFQYREAA [R14S] to FQEYDTDCEVFRQNFRQFQYREAA [R14N], the protein stability index rises from 2.29 to 2.62.

Compared with FQEYDTDCEVFRQFFRQFQYREAA [R14F], FQEYDTDCEVFRQLFRQFQYREAA [R14L] is higher in protein stability index: 2.01 for the first, 2.37 for the second.

Going from FQEYDTDCEVFRQMFRQFQYREAA [R14M] to FQEYDTDCEVFRQWFRQFQYREAA [R14W], the protein stability index falls from 3.51 to 2.36.

Compared with FQEYDTDCEVFRQAFRQFQYREAA [R14A], FQEYDTDCEVFRQIFRQFQYREAA [R14I] is lower in protein stability index: 2.83 for the first, 1.9 for the second.

First: FQEYDTDCEVFRQVFRQFQYREAA [R14V]
Second: FQEYDTDCEVFRQCFRQFQYREAA [R14C]
The protein stability index of the first is lower: 1.65 for the first, 2.23 for the second.

Compared with FQEYDTDCEVFRQYFRQFQYREAA [R14Y], FQEYDTDCEVFRQKFRQFQYREAA [R14K] is higher in protein stability index: 2.35 for the first, 3.16 for the second.

Compared with FQEYDTDCEVFRQRWRQFQYREAA [F15W], FQEYDTDCEVFRQRQRQFQYREAA [F15Q] is higher in protein stability index: 2.62 for the first, 3.01 for the second.

Compared with FQEYDTDCEVFRQRLRQFQYREAA [F15L], FQEYDTDCEVFRQRHRQFQYREAA [F15H] is higher in protein stability index: 2.42 for the first, 3.33 for the second.

Going from FQEYDTDCEVFRQRVRQFQYREAA [F15V] to FQEYDTDCEVFRQRKRQFQYREAA [F15K], the protein stability index falls from 2.98 to 2.22.

Compared with FQEYDTDCEVFRQRYRQFQYREAA [F15Y], FQEYDTDCEVFRQRGRQFQYREAA [F15G] is higher in protein stability index: 2.17 for the first, 2.85 for the second.

First: FQEYDTDCEVFRQRARQFQYREAA [F15A]
Second: FQEYDTDCEVFRQRMRQFQYREAA [F15M]
The protein stability index of the first is higher: 3.02 for the first, 2.84 for the second.

Compared with FQEYDTDCEVFRQRDRQFQYREAA [F15D], FQEYDTDCEVFRQRERQFQYREAA [F15E] is lower in protein stability index: 3.43 for the first, 2.92 for the second.

Compared with FQEYDTDCEVFRQRPRQFQYREAA [F15P], FQEYDTDCEVFRQRCRQFQYREAA [F15C] is lower in protein stability index: 3 for the first, 2.83 for the second.

Compared with FQEYDTDCEVFRQRSRQFQYREAA [F15S], FQEYDTDCEVFRQRRRQFQYREAA [F15R] is higher in protein stability index: 2.57 for the first, 2.76 for the second.

Going from FQEYDTDCEVFRQRTRQFQYREAA [F15T] to FQEYDTDCEVFRQRNRQFQYREAA [F15N], the protein stability index rises from 2.66 to 2.88.

Compared with FQEYDTDCEVFRQRIRQFQYREAA [F15I], FQEYDTDCEVFRQRFIQFQYREAA [R16I] is lower in protein stability index: 2.44 for the first, 2.31 for the second.

First: FQEYDTDCEVFRQRFEQFQYREAA [R16E]
Second: FQEYDTDCEVFRQRFWQFQYREAA [R16W]
The protein stability index of the first is higher: 2.27 for the first, 2.2 for the second.

First: FQEYDTDCEVFRQRFGQFQYREAA [R16G]
Second: FQEYDTDCEVFRQRFAQFQYREAA [R16A]
The protein stability index of the first is lower: 2.44 for the first, 2.51 for the second.

Going from FQEYDTDCEVFRQRFMQFQYREAA [R16M] to FQEYDTDCEVFRQRFHQFQYREAA [R16H], the protein stability index falls from 3.38 to 1.98.

Compared with FQEYDTDCEVFRQRFNQFQYREAA [R16N], FQEYDTDCEVFRQRFSQFQYREAA [R16S] is lower in protein stability index: 2.46 for the first, 2.21 for the second.

First: FQEYDTDCEVFRQRFYQFQYREAA [R16Y]
Second: FQEYDTDCEVFRQRFTQFQYREAA [R16T]
The protein stability index of the first is higher: 2.4 for the first, 2.28 for the second.

First: FQEYDTDCEVFRQRFLQFQYREAA [R16L]
Second: FQEYDTDCEVFRQRFFQFQYREAA [R16F]
The protein stability index of the first is higher: 2.59 for the first, 2.44 for the second.

First: FQEYDTDCEVFRQRFCQFQYREAA [R16C]
Second: FQEYDTDCEVFRQRFDQFQYREAA [R16D]
The protein stability index of the first is lower: 2.07 for the first, 2.6 for the second.

Compared with FQEYDTDCEVFRQRFPQFQYREAA [R16P], FQEYDTDCEVFRQRFVQFQYREAA [R16V] is higher in protein stability index: 2.11 for the first, 2.44 for the second.

Compared with FQEYDTDCEVFRQRFQQFQYREAA [R16Q], FQEYDTDCEVFRQRFKQFQYREAA [R16K] is higher in protein stability index: 2.78 for the first, 2.98 for the second.
